In this assay the target is actin from bovine muscle, monomerized (G-actin), labelled with NT-647 dye (bovine) (UniProt P68138). Description: MST.

In the case of “F1_(P97-232), recombinant fragment of the P97 cilium adhesin (amino acids 106-758) (domain or fragment)”, the dissociation constant (Kd) worked out at 34.2 nM.
To “F3_(P97-232), recombinant fragment of the P97 cilium adhesin (amino acids 768-938) (domain or fragment)” belongs 1790 nM.

For the origin of these results see publication PMC5835332.
